Assay results taken from the Immune Epitope Database (IEDB).

Key:
HLA-A*02:16 = assay: IEDB peptide-MHC binding, purified MHC/direct/fluorescence; filed as Kd, often an IC50 or EC50 that approximates it; ≥ and ≤ were set here for values at or beyond the usual limits of such assays
HLA-B*18:01 = assay: as above
HLA-A*02:11 = assay: as above
HLA-A*02:19 = assay: as above
HLA-B*27:03 [1] = assay: as above
HLA-A*29:02 = assay: as above
HLA-A*68:02 = assay: as above
HLA-A*02:03 = assay: as above
HLA-A*02:12 = assay: as above
HLA-A*69:01 = assay: as above
HLA-A*24:03 = assay: as above
HLA-B*15:01 = assay: as above
HLA-A*03:01 = assay: as above
HLA-A*02:01 = assay: as above
HLA-B*46:01 = assay: as above
HLA-A*23:01 = assay: as above
HLA-B*51:01 [2] = assay: as above
HLA-B*15:17 [3] = assay: as above
HLA-B*57:01 = assay: as above
HLA-A*26:01 [4] = assay: as above
HLA-B*27:03 [5] = assay: IEDB peptide-MHC binding, purified MHC/competitive/fluorescence; filed as Kd, often an IC50 or EC50 that approximates it; ≥ and ≤ were set here for values at or beyond the usual limits of such assays; conditions: source organism: Lechiguanas virus
HLA-B*39:01 [6] = assay: as above; conditions: source organism: Lechiguanas virus
HLA-B*51:01 [7] = assay: as above; conditions: source organism: Lechiguanas virus
HLA-B*15:17 [8] = assay: as above; conditions: source organism: Lechiguanas virus
HLA-A*26:01 [9] = assay: as above; conditions: source organism: Lechiguanas virus
HLA-A*01:01 = assay: IEDB peptide-MHC binding, purified MHC/direct/fluorescence; filed as Kd, often an IC50 or EC50 that approximates it; ≥ and ≤ were set here for values at or beyond the usual limits of such assays; conditions: source organism: Orthohantavirus andesense
HLA-B*07:02 = assay: as above; conditions: source organism: Orthohantavirus andesense
HLA-A*31:01 = assay: as above; conditions: source organism: Orthohantavirus andesense
HLA-B*27:05 = assay: as above; conditions: source organism: Orthohantavirus andesense
HLA-B*08:01 = assay: as above; conditions: source organism: Orthohantavirus andesense
HLA-B*58:01 = assay: as above; conditions: source organism: Orthohantavirus andesense
HLA-B*48:01 = assay: as above; conditions: source organism: Orthohantavirus andesense
HLA-B*44:02 = assay: as above; conditions: source organism: Orthohantavirus andesense
HLA-B*40:01 = assay: as above; conditions: source organism: Orthohantavirus andesense
HLA-A*11:01 = assay: as above; conditions: source organism: Orthohantavirus andesense
HLA-B*39:01 [10] = assay: as above; conditions: source organism: Vibrio cholerae O395
[11] = source organism: Giardia lamblia ATCC 50803
[12] = source organism: Orthohantavirus andesense
[13] = source organism: Rio Mamore hantavirus
[14] = source organism: Vibrio cholerae O395

Measured: Kd

MHDPHSIPL
≥ 20 µM: HLA-A*02:16; [11] | HLA-B*18:01; [11] | HLA-A*02:11; [11] | HLA-A*02:19; [11] | HLA-B*27:03 [1]; [11] | HLA-A*29:02; [11] | HLA-A*68:02; [11] | HLA-A*02:03; [11] | HLA-A*02:12; [11] | HLA-A*69:01; [11] | HLA-A*24:03; [11] | HLA-B*15:01; [11] | HLA-A*03:01; [11] | HLA-A*02:01; [11] | HLA-B*46:01; [11] | HLA-A*23:01; [11] | HLA-B*51:01 [2]; [11] | HLA-B*15:17 [3]; [11] | HLA-B*57:01; [11] | HLA-A*26:01 [4]; [11]

YRRKLTNPA
≥ 20 µM: HLA-B*27:03 [5] | HLA-B*39:01 [6] | HLA-B*51:01 [7] | HLA-B*15:17 [8] | HLA-A*26:01 [9] | HLA-A*01:01 | HLA-B*07:02 | HLA-B*18:01; [12] | HLA-A*31:01 | HLA-A*29:02; [12] | HLA-A*68:02; [13] | HLA-B*27:05 | HLA-B*58:01 | HLA-B*48:01 | HLA-A*02:12; [13] | HLA-A*69:01; [12] | HLA-A*24:03; [13] | HLA-B*44:02 | HLA-B*15:01; [12] | HLA-A*03:01; [12] | HLA-A*02:01; [12] | HLA-B*46:01; [12] | HLA-A*23:01; [13] | HLA-B*40:01 | HLA-B*57:01; [12] | HLA-A*11:01
1.12 µM: HLA-B*08:01

VVSEIDLQW
0.002 µM: HLA-B*15:17 [3]; [14]
≥ 20 µM: HLA-A*02:16; [14] | HLA-B*18:01; [14] | HLA-A*02:11; [14] | HLA-A*02:19; [14] | HLA-B*27:03 [1]; [14] | HLA-A*29:02; [14] | HLA-A*68:02; [14] | HLA-A*02:03; [14] | HLA-A*02:12; [14] | HLA-A*69:01; [14] | HLA-A*24:03; [14] | HLA-B*15:01; [14] | HLA-A*03:01; [14] | HLA-B*39:01 [10] | HLA-A*02:01; [14] | HLA-B*46:01; [14] | HLA-A*23:01; [14] | HLA-B*51:01 [2]; [14] | HLA-B*57:01; [14] | HLA-A*26:01 [4]; [14]
